The source of these data is PMC314469, “Protein Interaction Networks by Proteome Peptide Scanning” (PLoS Biology, 2004).

What all share (test): SPOT array
The target of experiment [1] is T1, Yfr024 SH3 (LSB3_YEAST), P43603.
T1 chain: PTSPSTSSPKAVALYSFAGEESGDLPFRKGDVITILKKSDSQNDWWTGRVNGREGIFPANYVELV

The target of experiment [2] is T2, Yhr016c SH3 (YSC84_YEAST), P32793.
T2 chain: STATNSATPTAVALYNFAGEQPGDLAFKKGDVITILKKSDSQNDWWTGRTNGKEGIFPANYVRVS

Experiment [3] has as its target Sho1 SH3 (SHO1_YEAST), P40073.
Experiment [4] deals with T3, Rvs167 SH3 (RV167_YEAST), P39743.
T3 chain: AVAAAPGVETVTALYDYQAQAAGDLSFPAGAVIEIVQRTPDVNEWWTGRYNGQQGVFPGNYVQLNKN

The target in experiment [5] is T4, Myo5 SH3 (MYO5_YEAST), Q04439.
T4 chain: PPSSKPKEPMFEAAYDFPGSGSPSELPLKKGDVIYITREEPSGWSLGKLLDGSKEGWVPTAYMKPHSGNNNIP

Experiment [6] addresses T5, Boi1 SH3 (BOI1_YEAST), P38041.
T5 chain: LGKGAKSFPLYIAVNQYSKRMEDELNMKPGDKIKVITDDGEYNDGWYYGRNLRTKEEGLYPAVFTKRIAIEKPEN

Experiment [7] addresses T6, Boi2 SH3 (BOI2_YEAST), P39969.
T6 chain: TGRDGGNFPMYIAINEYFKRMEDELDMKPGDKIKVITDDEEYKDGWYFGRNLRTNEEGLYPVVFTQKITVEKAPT

Sequence of Sho1 SH3 (SHO1_YEAST), P40073 (P40073 295-366): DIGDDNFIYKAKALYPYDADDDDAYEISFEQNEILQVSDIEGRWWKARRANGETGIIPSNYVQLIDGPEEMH

B1: YKL214C 53-66 (peptide)
chain: LYREREEPPLPKRI
Turning to B1, the normalised SPOT signal, Boehringer light units (BLU); mean over the file's lines of this peptide stood at 11800 in experiment [1]; 16200 in experiment [2]; 189 in experiment [3]; 2730 in experiment [4]; 112 in experiment [5]; 5980 in experiment [6]. Besides, the normalised SPOT signal, Boehringer light units (BLU); mean over the file's lines of this peptide in experiment [7] was determined as 18.3.

B2: YBL076C 285-298 (peptide)
chain: LVGLKYEPLFPYFA
B2: the normalised SPOT signal, Boehringer light units (BLU); mean over the file's lines of this peptide was 26.7 in experiment [1]; 25.3 in experiment [2]; 76.6 in experiment [3]; 35.1 in experiment [4]; 125 in experiment [5]; 50.5 in experiment [6]. The molecule also returned a normalised SPOT signal, Boehringer light units (BLU); mean over the file's lines of this peptide in experiment [7] of 108.

B3: YAL054C 43-56 (peptide)
chain: LTSVKIVPQRPISD
In the case of B3, the normalised SPOT signal, Boehringer light units (BLU); mean over the file's lines of this peptide amounted to 1530 in experiment [1]; 34.4 in experiment [2]; 15.3 in experiment [3]; 244 in experiment [4]; 89 in experiment [5]; 100 in experiment [6]. Further, in experiment [7], the normalised SPOT signal, Boehringer light units (BLU); mean over the file's lines of this peptide was 54.6.

B4: YDR335W 779-792 (peptide)
chain: LWRPRIVPILPYIT
Consider B4, for which the normalised SPOT signal, Boehringer light units (BLU); mean over the file's lines of this peptide in experiment [1] was 1540; in experiment [2] it was 331; in experiment [3], 112; in experiment [4], 627; in experiment [5] it was 1050; in experiment [6], 8230. The molecule also came in with a normalised SPOT signal, Boehringer light units (BLU); mean over the file's lines of this peptide in experiment [7] of 1870.

B5: YML058W 28-41 (peptide)
chain: MAEFRRVPLPPMAE
In the case of B5, the normalised SPOT signal, Boehringer light units (BLU); mean over the file's lines of this peptide in experiment [1] stood at 30500; in experiment [2], 7260; in experiment [3], 57.5; in experiment [4] it was 30400; in experiment [5], 443; in experiment [6], 59.6. In experiment [7], this molecule came in with a normalised SPOT signal, Boehringer light units (BLU); mean over the file's lines of this peptide of 64.1.

B6: YJL066C 98-111 (peptide)
chain: LVPSKAIPPLPQLD
As to B6, the normalised SPOT signal, Boehringer light units (BLU); mean over the file's lines of this peptide amounted to 226 in experiment [1]; 26 in experiment [2]; 102 in experiment [3]; 28.6 in experiment [4]; 558 in experiment [5]; 61.8 in experiment [6]. The same molecule had a normalised SPOT signal, Boehringer light units (BLU); mean over the file's lines of this peptide in experiment [7] of 51.2.
